Test results as given in IntAct's records for PubMed 23386062.

B1: Ras-related protein Rab-4B (Rattus norvegicus (Rat)), P51146 (parent)
chain: MAETYDFLFKFLVIGSAGTGKSCLLHQFIENKFKQDSNHTIGVEFGSRVVNVGGKTVKLQIWDTAGQERFRSVTRSYYRGAAGALLVYDITSRETYNSLAAWLTDARTLASPNIVVILCGNKKDLDPEREVTFLEASRFAQENELMFLETSALTGENVEEAFLKCARTILNKIDSGELDPERMGSGIQYGDISLRQLRQPRSAQAVAPQPCGC
B2: Ras-related protein Rab-9A (Homo sapiens), P51151 (parent)
chain: MAGKSSLFKVILLGDGGVGKSSLMNRYVTNKFDTQLFHTIGVEFLNKDLEVDGHFVTMQIWDTAGQERFRSLRTPFYRGSDCCLLTFSVDDSQSFQNLSNWKKEFIYYADVKEPESFPFVILGNKIDISERQVSTEEAQAWCRDNGDYPYFETSAKDATNVAAAFEEAVRRVLATEDRSDHLIQTDTVNLHRKPKPSSSCC

Variants of: B1
Settings: with nisch_human NISCH

Row | effect of a mutation on the interaction | Variant
1 | disrupting interaction | S22N

Variants of: B2
Settings: with nisch_human NISCH

Row | effect of a mutation on the interaction | Variant
2 | disrupting interaction | S21D
